# Test results published in patent US20050266009A1.
# Legend:
# Assay in all cases: ELISA on coated peptide
# [1] = molecular target: T1, PSGL-1 (residues 42-58) derived peptide sulfated at 3rd tyrosine position
# T1 sequence (peptide, sulfated at 3rd tyrosine position): QATEYEYLDYDFLPETE
# [2] = molecular target: T2, GPIb (residues 268-285) derived peptide sulfated at 3rd tyrosine position
# T2 sequence (peptide, sulfated at 3rd tyrosine position): GDEGDTDLYDYYPEEDTE
# [3] = molecular target: T3, CCR5 (residues 1-18) derived peptide sulfated at 1st tyrosine position
# T3 sequence (peptide, sulfated at 1st tyrosine position): MDYQVSSPIYDINYYTSE
# [4] = molecular target: T4, PSGL-1 (residues 42-58) derived peptide sulfated at 1st tyrosine position
# T4 sequence (peptide, sulfated at 1st tyrosine position): QATEYEYLDYDFLPETE
# [5] = molecular target: T5, CCR5 (residues 1-18) derived peptide, non-sulfated
# T5 sequence (peptide): MDYQVSSPIYDINYYTSE
# [6] = molecular target: T6, GPIb (residues 268-285) derived peptide, non-sulfated
# T6 sequence (peptide): GDEGDTDLYDYYPEEDTE
# [7] = molecular target: T7, PSGL-1 (residues 42-58) derived peptide, non-sulfated
# T7 sequence (peptide): QATEYEYLDYDFLPETE
# [8] = molecular target: T8, PSGL-1 (residues 42-58) derived peptide sulfated at 2nd tyrosine position
# T8 sequence (peptide, sulfated at 2nd tyrosine position): QATEYEYLDYDFLPETE
# [9] = molecular target: T9, CCR5 (residues 1-18) derived peptide sulfated at 2nd tyrosine position
# T9 sequence (peptide, sulfated at 2nd tyrosine position): MDYQVSSPIYDINYYTSE
# [10] = molecular target: T10, GPIb (residues 268-285) derived peptide sulfated at 1st tyrosine position
# T10 sequence (peptide, sulfated at 1st tyrosine position): GDEGDTDLYDYYPEEDTE
# [11] = molecular target: T11, CCR5 (residues 1-18) derived peptide sulfated at 3rd tyrosine position
# T11 sequence (peptide, sulfated at 3rd tyrosine position): MDYQVSSPIYDINYYTSE
substance,measurement,setting,value
N06 scFv (negative control),ELISA reading at 450 nm,[1],0.06
same,ELISA reading at 450 nm,[2],0.07
same,ELISA reading at 450 nm,[3],0.06
same,ELISA reading at 450 nm,[4],0.06
same,ELISA reading at 450 nm,[5],0.06
same,ELISA reading at 450 nm,[6],0.07
same,ELISA reading at 450 nm,[7],0.06
same,ELISA reading at 450 nm,[8],0.06
same,ELISA reading at 450 nm,[9],0.06
same,ELISA reading at 450 nm,[10],0.07
same,ELISA reading at 450 nm,[11],0.06
